Laboratory results reported in patent publication EP4631959A2, “NOVEL MINIGASTRIN-DERIVED CHOLECYSTOKININ 2 RECEPTOR BINDING MOLECULES FOR IMAGING AND TARGETED RADIOTHERAPY” (priority 2022, dated 2024).
Like-named read-outs stand apart in the source and are kept apart here. Starred links: 1 amine or outer side, 2 acyl side, 3 side chain; linkers in the order of their positions; H or OH if unused. Non-standard residues stand in square brackets, D forms with d. Residues, ends and D or L forms follow the SMILES beside them. *: point of attachment. Benzoyl(4-SiFtBu2) = CC(C)(C)[Si](F)(c1ccc(C(=O)*)cc1)C(C)(C)C; DOTA = O=C(O)CN1CCN(CC(=O)O)CCN(CC(=O)*)CCN(CC(=O)O)CC1; PEG12 = NCCOCCOCCOCCOCCOCCOCCOCCOCCOCCOCCOCCOCCC(=O)O; d(γGlu) = O=C(O)[C@@H](CCC(=O)[*:2])N[*:1]; 1Nal = N[C@@H](Cc1cccc2ccccc12)C(=O)O; Hyp = O=C(O)[C@@H]1C[C@@H](O)CN1; dCit = NC(=O)NCCC[C@@H](N)C(=O)O; PEG5 = NCCOCCOCCOCCOCCOCCC(=O)O; NMeNle = CCCC[C@H](NC)C(=O)O; PEG4 = NCCOCCOCCOCCOCCC(=O)O; dDap = NC[C@@H](N)C(=O)O

Legend:
[1] = target: T1, CCK-2R (Rattus norvegicus, UniProt P30553); test: Determination of IC50: CCK-2R affinity on AR4-2J cells, competition with [^177Lu]Lu-DOTA-PP-F11N; assay type: binding; conditions: AR4-2J cells
T1 construct: The CCK-2R expressing rat pancreatic tumor cells AR4-2J; host or cells: AR4-2J rat pancreatic tumor cells
T1 sequence (P30553 1-452): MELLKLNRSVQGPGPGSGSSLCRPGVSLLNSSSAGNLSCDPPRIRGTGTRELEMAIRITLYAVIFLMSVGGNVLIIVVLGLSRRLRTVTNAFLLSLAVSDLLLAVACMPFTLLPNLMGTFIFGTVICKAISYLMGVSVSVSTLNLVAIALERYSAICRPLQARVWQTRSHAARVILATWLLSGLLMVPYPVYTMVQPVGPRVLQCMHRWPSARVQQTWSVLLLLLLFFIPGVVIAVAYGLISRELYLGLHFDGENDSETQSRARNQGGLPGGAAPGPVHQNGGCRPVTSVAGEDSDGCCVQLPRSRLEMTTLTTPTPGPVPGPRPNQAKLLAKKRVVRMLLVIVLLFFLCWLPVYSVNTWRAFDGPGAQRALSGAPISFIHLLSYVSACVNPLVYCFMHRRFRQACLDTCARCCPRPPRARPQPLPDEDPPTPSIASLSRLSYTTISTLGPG
How it was run: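 Competitive displacement of 0.3 pmol/well [177Lu]Lu-DOTA-PP-F11N by compounds (10^-10 to 10^-4 M) on AR4-2J cells in BSA-supplemented medium, 3 h at 37 °C. Free label was collected from medium plus PBS rinse, and cell-bound label was recovered with 1 M NaOH, both measured by γ-counter. Each IC50 was determined twice, in triplicate.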

[2] = n-Octanol-PBS distribution coefficient (logD7.4); assay type: physicochemical; conditions: pH = 7.4, ^177Lu-labeled
Experimental: Approximately 1 MBq of the labeled tracer was dissolved in 1 mL of a 1/1 mixture (v/v) of phosphate buffered saline (PBS, pH = 7.4) and n-octanol in an Eppendorf tube (1.5 mL). After vigorous mixing of the suspension for 3 min at rt, the vial was centrifuged at 9,000 rpm for 5 min (Biofuge 15, Heraeus Sepatech, Osterode, Germany) and 200 µL aliquots of both layers were measured in a γ-counter. The experiment was repeated at least five times.

[3] = target: T2, Human serum albumin (HSA) (Homo sapiens, UniProt P02768); test: Determination of HSA binding on a Chiralpak HSA column; assay type: in vitro ADME; conditions: Tab. 8; metal not stated (Fig. 18: ^natLu)
T2 construct: purchased Daicel, Tokyo, Japan H13H-2433
T2 sequence (P02768 25-609): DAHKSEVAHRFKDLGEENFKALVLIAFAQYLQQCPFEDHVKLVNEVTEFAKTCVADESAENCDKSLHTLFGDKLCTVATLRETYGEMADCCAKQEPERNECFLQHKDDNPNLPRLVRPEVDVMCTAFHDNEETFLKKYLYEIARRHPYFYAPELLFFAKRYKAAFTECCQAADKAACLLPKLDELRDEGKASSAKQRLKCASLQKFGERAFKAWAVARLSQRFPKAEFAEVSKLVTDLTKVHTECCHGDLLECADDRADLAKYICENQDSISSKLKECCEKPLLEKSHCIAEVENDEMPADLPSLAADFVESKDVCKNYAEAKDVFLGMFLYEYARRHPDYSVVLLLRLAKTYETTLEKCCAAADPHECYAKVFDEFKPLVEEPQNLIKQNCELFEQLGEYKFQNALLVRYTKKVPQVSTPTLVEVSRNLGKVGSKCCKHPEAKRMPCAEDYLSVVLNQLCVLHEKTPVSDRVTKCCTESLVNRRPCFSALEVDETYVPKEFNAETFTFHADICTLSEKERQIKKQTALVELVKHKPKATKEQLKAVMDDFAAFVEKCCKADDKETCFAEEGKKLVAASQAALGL
Experimental: Human serum albumin (HSA) binding of the CCK-2R-targeted compounds was determined as reported by Valko et al., using a Chiralpak HSA column (50 x 3 mm, 5 µm, H13H-2433, Daicel, Tokyo, Japan) at a constant flow rate of 0.5 mL/min at rt. Therefore, an aq. solution of NH4OAc (pH = 6.9, 50 mM) as mobile phase A and isopropanol as mobile phase B were freshly prepared. In order to calibrate the column prior to the experiments, the retention times of nine reference substances with a HSA binding in the range of 13 to 99% were determined using a gradient of 100% A (0 to 3 min), followed by 80% A (3 to 40 min). Furthermore, all substances tested, were dissolved in a mixture (1/1, v/v) of A and B reaching a final concentration of 0.5 mg/mL. The HSA binding of all rhCCK ligands tested, was determined using the same gradient as for the calibration probes. The non-linear regression of the calibration experiments and the CCK-2R ligands (Fig. 29) was established using the OriginPro 2016G software (Northampton, United States).

[4] = read-out: IC50 [nM] (n = 3), ^natLu-labeled, ^natLu-labeled
[5] = ^natLu-labeled, read-out: IC50 [nM] (n = 3), ^natLu-labeled

Row | SMILES | IC50 [1, 4] | logD7.4 (n ≥ 5), ^177Lu-labeled [2] | HSA binding [%] [3] | IC50 [1, 5] | IC50 ([1]; read-out: IC50 [nM] (n = 3), ^natGa-labeled, ^natGa-labeled) | logD7.4 (n ≥ 5), ^177Lu-labeled ([2]; listed as [^nat/177Lu]Lu-DOTA-rhCCK-76)
1 | CCCC[C@@H](C(=O)N[C@@H](CC(=O)O)C(=O)N[C@@H](Cc1cccc2ccccc12)C(N)=O)N(C)C(=O)[C@H](Cc1c[nH]c2ccccc12)NC(=O)CCOCCOCCOCCOCCNC(=O)CC[C@@H](NC(=O)[C@@H]1C[C@@H](O)CN1C(=O)[C@@H]1C[C@@H](O)CN1C(=O)[C@@H]1C[C@@H](O)CN1C(=O)[C@@H]1C[C@@H](O)CN1C(=O)[C@@H]1C[C@@H](O)CN1C(=O)[C@@H]1C[C@@H](O)CN1C(=O)[C@@H]1C[C@@H](O)CN1C(=O)[C@@H]1C[C@@H](O)CN1C(=O)CC[C@@H](NC(=O)[C@@H](CNC(=O)c1ccc([Si](F)(C(C)(C)C)C(C)(C)C)cc1)NC(=O)CN1CCN(CC(=O)O)CCN(CC(=O)O)CCN(CC(=O)O)CC1)C(=O)O)C(=O)O [DOTA-rhCCK-86, DOTA-dap(SiFA)-γ-glu-(Hyp)8-γ-glu-(PEG)3-Trp-(N-Me)Nle-Asp-1-Nal-NH2] ({DOTA}-[dDap](Benzoyl(4-SiFtBu2))[d(γGlu)][Hyp][Hyp][Hyp][Hyp][Hyp][Hyp][Hyp][Hyp][d(γGlu)][PEG4]W[NMeNle]D[1Nal]-NH2) | 10 ± 1.4 nM | −1.86 ± 0.06 | 88.1% |  |  | 
2 | CCCC[C@@H](C(=O)N[C@@H](CC(=O)O)C(=O)N[C@@H](Cc1cccc2ccccc12)C(N)=O)N(C)C(=O)[C@H](Cc1c[nH]c2ccccc12)NC(=O)CCOCCOCCOCCOCCNC(=O)CC[C@@H](NC(=O)CCOCCOCCOCCOCCOCCOCCOCCOCCNC(=O)CC[C@@H](NC(=O)[C@@H](CNC(=O)c1ccc([Si](F)(C(C)(C)C)C(C)(C)C)cc1)NC(=O)CN1CCN(CC(=O)O)CCN(CC(=O)O)CCN(CC(=O)O)CC1)C(=O)O)C(=O)O [DOTA-rhCCK-70, DOTA-dap(SiFA)-γ-glu-(PEG7-γ-glu-(PEG)3-Trp-(N-Me)Nle-Asp-1-Nal-NH2] |  | −1.67 ± 0.08 | 89.3% | 12.6 ± 2 nM |  | 
3 | CCCC[C@@H](C(=O)N[C@@H](CC(=O)O)C(=O)N[C@@H](Cc1cccc2ccccc12)C(N)=O)N(C)C(=O)[C@H](Cc1c[nH]c2ccccc12)NC(=O)CCOCCOCCOCCOCCNC(=O)CC[C@@H](NC(=O)CCOCCOCCOCCOCCOCCOCCOCCOCCOCCOCCOCCOCCNC(=O)[C@@H](CNC(=O)c1ccc([Si](F)(C(C)(C)C)C(C)(C)C)cc1)NC(=O)CN1CCN(CC(=O)O)CCN(CC(=O)O)CCN(CC(=O)O)CC1)C(=O)O [DOTA-rhCCK-74, DOTA-dap(SiFA)-(PEG)11-γ-glu-(PEG)3-Trp-(N-Me)Nle-Asp-1-Nal-NH2] ({DOTA}-[dDap](Benzoyl(4-SiFtBu2))[PEG12][d(γGlu)][PEG4]W[NMeNle]D[1Nal]-NH2) |  | −1.19 ± 0.07 | 87.2% | 12.1 ± 1 nM |  | 
4 | CCCC[C@@H](C(=O)N[C@@H](CC(=O)O)C(=O)N[C@@H](Cc1cccc2ccccc12)C(N)=O)N(C)C(=O)[C@H](Cc1c[nH]c2ccccc12)NC(=O)CCOCCOCCOCCOCCNC(=O)CC[C@@H](NC(=O)CCOCCOCCOCCOCCOCCOCCOCCOCCNC(=O)CC[C@@H](NC(=O)[C@@H](CNC(=O)c1cc(C(=O)O)cc([Si](F)(C(C)(C)C)C(C)(C)C)c1)NC(=O)CN1CCN(CC(=O)O)CCN(CC(=O)O)CCN(CC(=O)O)CC1)C(=O)O)C(=O)O [DOTA-rhCCK-72, DOTA-dap(SiFA-ipa)-γ-glu-(PEG)7-γ-glu-(PEG)3-Trp-(N-Me)Nle-Asp-1-Nal-NH2] |  | −2.32 ± 0.03 | 89.3% | 52.3 ± 6.2 nM |  | 
5 | CCCC[C@@H](C(=O)N[C@@H](CC(=O)O)C(=O)N[C@@H](Cc1cccc2ccccc12)C(N)=O)N(C)C(=O)[C@H](Cc1c[nH]c2ccccc12)NC(=O)CCOCCOCCOCCOCCNC(=O)CC[C@@H](NC(=O)CCOCCOCCOCCOCCOCCOCCOCCOCCNC(=O)CC[C@@H](NC(=O)[C@@H](CNC(=O)C[N+](C)(C)Cc1ccc([Si](F)(C(C)(C)C)C(C)(C)C)cc1)NC(=O)CN1CCN(CC(=O)O)CCN(CC(=O)O)CCN(CC(=O)O)CC1)C(=O)O)C(=O)O [DOTA-rhCCK-71, DOTA-dap(SiFAlin)-γ-glu-(PEG)7-γ-glu-(PEG)3-Trp-(N-Me)Nle-Asp-1-Nal-NH2] |  | −1.63 ± 0.06 | 89.1% | 13.3 ± 1.3 nM |  | 
6 | CCCC[C@@H](C(=O)N[C@@H](CC(=O)O)C(=O)N[C@@H](Cc1cccc2ccccc12)C(N)=O)N(C)C(=O)[C@H](Cc1c[nH]c2ccccc12)NC(=O)CCOCCOCCOCCOCCNC(=O)CC[C@@H](NC(=O)CCOCCOCCOCCOCCOCCNC(=O)[C@@H](CNC(=O)c1ccc([Si](F)(C(C)(C)C)C(C)(C)C)cc1)NC(=O)CN1CCN(CC(=O)O)CCN(CC(=O)O)CCN(CC(=O)O)CC1)C(=O)O [DOTA-rhCCK-67, DOTA-dap(SiFA)-(PEG)4-γ-glu-(PEG)3-Trp-(N-Me)Nle-Asp-1-Nal-NH2] ({DOTA}-[dDap](Benzoyl(4-SiFtBu2))[PEG5][d(γGlu)][PEG4]W[NMeNle]D[1Nal]-NH2) |  | −1.05 ± 0.09 | 92.9% | 13 ± 1.1 nM | 49.5 ± 3.7 nM | 
7 | CCCC[C@@H](C(=O)N[C@@H](CC(=O)O)C(=O)N[C@@H](Cc1cccc2ccccc12)C(N)=O)N(C)C(=O)[C@H](Cc1c[nH]c2ccccc12)NC(=O)CCOCCOCCOCCOCCNC(=O)CC[C@@H](NC(=O)[C@@H]1C[C@@H](O)CN1C(=O)[C@@H]1C[C@@H](O)CN1C(=O)[C@@H]1C[C@@H](O)CN1C(=O)[C@@H](CCCNC(N)=O)NC(=O)[C@@H](CCCNC(N)=O)NC(=O)[C@@H](CCCNC(N)=O)NC(=O)CC[C@@H](NC(=O)[C@@H](CNC(=O)c1ccc([Si](F)(C(C)(C)C)C(C)(C)C)cc1)NC(=O)CN1CCN(CC(=O)O)CCN(CC(=O)O)CCN(CC(=O)O)CC1)C(=O)O)C(=O)O [DOTA-rhCCK-85, DOTA-dap(SiFA)-γ-glu-(cit)3-(Hyp)3-γ-glu-(PEG)3-Trp-(N-Me)Nle-Asp-1-Nal-NH2] ({DOTA}-[dDap](Benzoyl(4-SiFtBu2))[d(γGlu)][dCit][dCit][dCit][Hyp][Hyp][Hyp][d(γGlu)][PEG4]W[NMeNle]D[1Nal]-NH2) | 12.9 ± 0.3 nM | −1.95 ± 0.09 | 90.3% |  |  | 
8 | CCCC[C@@H](C(=O)N[C@@H](CC(=O)O)C(=O)N[C@@H](Cc1cccc2ccccc12)C(N)=O)N(C)C(=O)[C@H](Cc1c[nH]c2ccccc12)NC(=O)CCOCCOCCOCCOCCNC(=O)CC[C@@H](NC(=O)CCOCCOCCOCCOCCOCCOCCOCCOCCOCCOCCOCCOCCNC(=O)CC[C@@H](NC(=O)[C@@H](CNC(=O)c1ccc([Si](F)(C(C)(C)C)C(C)(C)C)cc1)NC(=O)CN1CCN(CC(=O)O)CCN(CC(=O)O)CCN(CC(=O)O)CC1)C(=O)O)C(=O)O [DOTA-rhCCK-76, DOTA-dap(SiFA)-γ-glu-(PEG)11-γ-glu-(PEG)3-Trp-(N-Me)Nle-Asp-1-Nal-NH2] |  | −1.82 ± 0.09 | 86.2% | 14.2 ± 0.9 nM |  | -1.82 ± 0.09
